{
  "source": "paper PMC3953565",
  "about": "(Methods in molecular biology (Clifton, N.J.), 2009)",
  "biological_target": "the molecule itself",
  "assay": "AUC",
  "data": [
    {"protein": "recombinant human mitochondrial single-stranded DNA binding protein, mature form (natural protein, UniProt Q04837 17-148, looked up) ESETTTSLVLERSLNRVHLLGRVGQDPVLRQVEGKNPVTIFSLATNEMWRSGDSEVYQLGDVSQKTTWHRISVFRPGLRDVAYQYVKKGSRIYLEGKIDYGEYMDKNNVRRQATTIIADNIIFLSDQTKEKE", "values": [
      {"measurement": "stoichiometry N", "value": 4}
    ]}
  ]
}
